Target: the molecule itself
Experiment: AUC

B1: stabilized H176C form of the soluble human LLT1 ectodomain (Gln72-Val191), glycosylated (domain or fragment, UniProt Q9UHP7 72-191, looked up)
chain: QAACPESWIGFQRKCFYFSDDTKNWTSSQRFCDSQDADLAQVESFQELNFLLRYKGPSDHWIGLSREQGQPWKWINGTEWTRQFPILGAGECAYLNDKGASSARCYTERKWICSKSDIHV
modifications: GlcNAc2Man5 N-glycans
stoichiometry N: 2

Reference: article doi:10.1101/2021.06.16.448687 (bioRxiv, 2021)
